Binding result and Kd data for one molecule are collected here from patent US20230078601A1 (CLEVELAND CLINIC FOUNDATION, published 2023).

The target in one test is T1, Native p17-33.
T1 construct: also called AMHR2-ED 17-33 17-mer peptide
T1 peptide: GSTKTLGELLDTGTELP
Put plainly: SPOT peptide array of membrane-bound 17-mer peptides, 4D12G1, chemiluminescence. How it is done:
on cellulose membranes (JPT Peptide Technologies, Berlin, Germany), treated overnight with blocking buffer (Thermo Fisher), followed by treatment with the 4D12G1 mAb at 1.0 μg/ml for 3 hours at room temperature, followed by three washes with PBS containing 0.01% Tween-20 (Bio-Rad). The membranes were then treated with a 1:10,000 dilution of an HRP-conjugated rabbit anti-mouse IgG (MilliporeSigma) followed by three washes with PBS containing 0.01% Tween-20 (Bio-Rad). Bound antibody was detected using the HyGLO chemiluminescence system (Thomas Scientific).
An overlapping series of 16-mer peptides spanning the entire 132 amino acid sequence of human AMHR2-ED (FIG. 3A) with moving single amino acid shifts were plated for direct ELISA testing using the 4D12G1 mAb as primary antibody. […] To determine amino acids recognized by the 4D12G1 mAb, an overlapping series of peptides spanning the immunoreactive sequence comprising AMHR2-ED 13-30 were synthesized with alanine substitutions at each N-terminal residue or with glycine substitutions for any native N-terminal alanine. These peptides were used in competitive ELISAs to determine which residues inhibit binding of the 4D12G1 mAb with solid phase rhAMHR2-ED. […] Bound antibody was detected by chemiluminescence. […]

Test [1] deals with T2, recombinant extracellular domain of human AMHR2 (rhAMHR2-ED), C-terminal hexahistidine-tagged fusion protein (human, UniProt Q16671 18-149).
T2 construct: also called human AMHR2-ED
T2 sequence: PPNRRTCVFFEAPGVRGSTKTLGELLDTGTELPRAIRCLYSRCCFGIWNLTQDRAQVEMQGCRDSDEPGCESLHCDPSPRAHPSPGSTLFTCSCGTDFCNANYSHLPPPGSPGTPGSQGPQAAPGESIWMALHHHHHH
Put plainly: SPR, Biacore 3000, 25 C; 4D12G1 immobilised by amine coupling, rhAMHR2-ED as analyte, Langmuir 1:1 fit. How it is done: Briefly, the 4D12G1 mAb at 300 nM was diluted in sodium acetate at pH 5.0 and covalently immobilized on carboxymethylated dextran over a gold surface using an aqueous solution of N-ethyl-N′-(3-dimethylaminopropyl)carbodiimide (EDC) and N-hydroxysuccinimide (NHS; Sigma-Aldrich). The rhAMHR2-ED receptor analyte at different concentrations (10-1-103 nM) in a running buffer containing 10 mM HEPES at pH 7.4, 150 mM NaCl, 3 mM EDTA, and 0.005% P20 detergent was captured with a […] flow over the immobilized 4D12G1 ligand. Regeneration of flow cells was performed using 10 mM glycine (Sigma-Aldrich) at pH 1.7. All sensorgrams were corrected by subtracting the low signal of the control flow cell and the dissociation curve of the 4D12G1 mAb. The KD values, taking into account affinity and avidity, were calculated using a Langmuir 1:1 fitting model and BIAevaluation 3.2 software (GE Healthcare Bio-Sciences).
An overlapping series of 16-mer peptides spanning the entire 132 amino acid sequence of human AMHR2-ED (FIG. 3A) with moving single amino acid shifts were plated for direct ELISA testing using the 4D12G1 mAb as primary antibody. […]
(In general: SPR reads the build-up and loss of mass on a sensor chip optically.)

B1: 4D12G1 mAb (antibody, IgG1, V domains shown)
VH: DVKLVESGGGLVKLGGSLKLSCAASGFTFSRYFMSWVRQTPEKRLELVAAINSDGGRTYYPDTVKGRFTISRDNAKNTLYLQMSSLKSEDTALYYCTRHIYSYYEDYFDYWGQGTTLTVSS
VL: DVVMTQTPLSLPVSLGDQASISCRSSQSLVHSNGNTYLHWYLQKPGQSPKLLIYKVSKRFSGVPDRFSGSGSGTDFTLKISRVEAEDLGVYFCSQSTHVYTFGGGTKLEIK
notes: also called 4D12G1 IgG1 mAb
The Kd is the concentration at which binding is half-saturated. As to B1, the binding result with Native p17-33 is “binds”. Besides, the dissociation constant (Kd) in test [1] turned out to be 0.119 nM.
